Results on one molecule are retold here after patent US20120141505A1 (published 2012).

In test [1] the target is T1, CD19 co-receptor on CD19+ human B-lineage ALL cells (primary leukemic cells; NALM-6 cell line) (human, UniProt P15391 20-556).
T1 construct: Endogenous CD19 on leukemia cells
T1 sequence: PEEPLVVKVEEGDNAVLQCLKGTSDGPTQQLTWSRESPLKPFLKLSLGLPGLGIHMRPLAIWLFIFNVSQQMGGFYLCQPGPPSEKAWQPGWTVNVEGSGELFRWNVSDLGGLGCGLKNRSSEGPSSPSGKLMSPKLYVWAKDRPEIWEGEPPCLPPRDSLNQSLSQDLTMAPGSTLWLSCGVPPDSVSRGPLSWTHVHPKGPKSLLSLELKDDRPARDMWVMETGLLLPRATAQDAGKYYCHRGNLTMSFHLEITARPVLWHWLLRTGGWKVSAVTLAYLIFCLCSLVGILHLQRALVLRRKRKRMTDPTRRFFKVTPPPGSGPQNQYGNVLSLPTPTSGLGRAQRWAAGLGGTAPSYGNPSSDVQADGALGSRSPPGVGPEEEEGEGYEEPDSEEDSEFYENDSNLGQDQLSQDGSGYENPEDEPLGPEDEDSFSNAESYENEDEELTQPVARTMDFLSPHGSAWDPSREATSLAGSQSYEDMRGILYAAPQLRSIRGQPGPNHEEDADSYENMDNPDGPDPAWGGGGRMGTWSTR
In words: deconvolution microscopy, biotin-labeled CD19-L plus Avidin-FITC. Here is the method: Deconvolution microscopy was performed using the Deltavision deconvolution system from Applied Precision which consists of a Nikon TE200 inverted microscope outfitted for epifluorescence and fitted with an Applied Precision nanomover stage for precise control of the stage. Image collection was through a Photometrics CH350/L liquid cooled CCD camera. The system was controlled by SoftWoRx imaging software run on a Silicon Graphics O2 workstation.
(§1) Binding of biotin-labeled soluble CD19-L protein to the surface of CD19 co-receptor positive cells was examined using immunofluorescence staining combined with flow cytometry and deconvolution microscopy.

The target of test [2] is T2, human CD19 expressed on transfected DT40 chicken B-lymphoma cells (DT40hCD19+) (human, UniProt P15391 20-556).
T2 construct: Human CD19 cDNA under a chicken actin promoter (pApuro) in DT40 cells; also called human CD19 co-receptor
T2 sequence: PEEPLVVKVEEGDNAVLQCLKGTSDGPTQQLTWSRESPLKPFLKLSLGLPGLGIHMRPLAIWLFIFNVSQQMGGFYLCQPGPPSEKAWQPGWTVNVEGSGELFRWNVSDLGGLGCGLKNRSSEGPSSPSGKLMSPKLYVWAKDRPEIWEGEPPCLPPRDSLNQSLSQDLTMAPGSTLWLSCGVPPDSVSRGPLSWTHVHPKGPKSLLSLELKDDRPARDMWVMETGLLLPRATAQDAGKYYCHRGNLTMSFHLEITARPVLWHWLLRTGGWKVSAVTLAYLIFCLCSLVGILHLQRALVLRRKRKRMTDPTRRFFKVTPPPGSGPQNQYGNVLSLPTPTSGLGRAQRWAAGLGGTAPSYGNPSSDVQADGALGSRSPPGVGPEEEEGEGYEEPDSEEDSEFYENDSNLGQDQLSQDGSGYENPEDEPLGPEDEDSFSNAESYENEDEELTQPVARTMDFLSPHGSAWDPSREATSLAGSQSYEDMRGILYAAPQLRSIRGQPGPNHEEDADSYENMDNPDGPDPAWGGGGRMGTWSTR
In words: flow cytometry, biotin-labeled CD19-L plus Avidin-FITC.
Text: as §1
Background: Flow cytometry measures light scatter and fluorescence of single cells or particles in a stream.

B1: biotin-labeled soluble recombinant human CD19-L protein (ligand)
chain: MYMSMTEPSQDYVPASQSYPGPSLESEDFNIPPITPPSLQDHSLVHLNEVESGYHSLCHPMNHNGLLPFHPQNMDLPEITVSNMLGQDGTLLSNSISVMPDIRNPEGTQYSSHPQMAAMRPRGQPAQIRQQPGMMPHGQLTTINQSQLSAQLGLNMGGSNVPHNSPSPPGSKSATPSPSSSVHEDEGDDTSKINGGEKRPASDMGKKPKTPKKKKKKDPNEPQKPVSAYALFFRDTQAAIKGQNPNATFGEVSKIVASMWDGLGEEQKQVYKKKTEAAKKEYLKQLAAYRASLVSKSYSEPVDVKTSQPPQLINSKPSVFHGPSQAHSALYLSSHYHQQPGMNPHLTAMHPSLPRNIAPKPNNQMQVTVSIANMAVSPPPPLQISPPLHQHLNMQQHQPLTMQQPLGNQLPMQVQSALHSPTMQQGFTLQPDYQTIINPTSTAAQVVTQAMEYVRSGCRNPPPQPVDWNNDYCSSGGMQRDKALYLT
modifications: biotin-labeled (sites not given) ; Biotin-labelled; sites and chemistry not stated.
notes: Same recombinant protein as m1, labelled with biotin and detected with Avidin-FITC; also called biotin-labeled CD19-L; biotin-labeled soluble CD19-L protein; not shown: N-terminal pFastBacHT leader (6xHis tag, spacer region, rTEV cleavage site)
For the molecule B1, the binding result in test [1] and in test [2] was “binds” throughout.
